Measurements reported in patent US20130101602A1 (ARGOS THERAPEUTICS, published 2013).
Changes are numbered by the printed parent chain. In names and notes the source's numbering stands.

Key:
[1] = biological target: T1, recombinant human IFN-αJ1 (human, UniProt P01567 24-189); assay: cell-based or functional assay
recombinant human IFN-αG [2] = biological target: T2, recombinant human IFN-αG (human, UniProt P01569 24-189); assay: cell-based or functional assay
recombinant human IFN-αF [3] = biological target: T3, recombinant human IFN-αF (human, UniProt P01568 24-189); assay: cell-based or functional assay
T3 sequence (P01568 24-189): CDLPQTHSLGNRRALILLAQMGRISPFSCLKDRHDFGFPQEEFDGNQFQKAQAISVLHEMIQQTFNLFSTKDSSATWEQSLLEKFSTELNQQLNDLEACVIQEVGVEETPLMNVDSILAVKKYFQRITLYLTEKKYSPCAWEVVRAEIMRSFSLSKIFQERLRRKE

[4] = biological target: T1, recombinant human IFN-αJ1; assay: SPR (Biacore), mAb amine-coupled on CM5 chip, IFN-α injected, 1:1 Langmuir fit
Description: (§1) The purified monoclonal antibodies were immobilized in individual flow cells on a CM5 type sensor chip. Immobilizations were performed using a standard amine coupling procedure, aiming for an immobilization level of 1000 Resonance Units (RU).
(§2) HBS-EP pH 7.4 (10 mM HEPES, 150 mM NaCl, 3 mM EDTA and 0.005% Polysorbate P20) was used as running buffer, and diluent for the recombinant IFN-α's. Association (injection) was 4 min., followed by a 12 to 30 min. dissociation period. Flow rate was 50 μl/min. Experiments were performed at 25° C. Detection in all flow cells simultaneously. Flow cell #1 contained no immobilized antibody, and was used for subtraction of background and bulk.
(§3) Data was inspected for mass-transport limitations prior to calculation of the kinetic parameters.

recombinant human IFN-αG [5] = biological target: T2, recombinant human IFN-αG; assay: as above
Description: as §1, §2, §3

recombinant human IFN-αI = biological target: T4, recombinant human IFN-αI (human, UniProt P01571 24-189); assay: as above
T4 construct: also called hIFN-αI
T4 sequence (P01571 24-189): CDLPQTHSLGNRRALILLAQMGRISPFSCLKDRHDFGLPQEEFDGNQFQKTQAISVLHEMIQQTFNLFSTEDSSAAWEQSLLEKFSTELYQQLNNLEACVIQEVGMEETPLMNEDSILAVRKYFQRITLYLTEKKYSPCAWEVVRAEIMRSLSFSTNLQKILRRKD
Description: as §1, §2, §3

recombinant human IFN-αC [6] = biological target: T5, recombinant human IFN-αC (human, UniProt P01566 24-189); assay: as above
T5 construct: also called hIFN-αC
T5 sequence (P01566 24-189): as the sequence (P01571 24-189) above, with A19G, G37R, L38I, T51A, N95D, M106V, T132I, K134R, I161R counted along it
Description: as §1, §2, §3

recombinant human IFN-αK = biological target: T6, recombinant human IFN-αK (human, UniProt P05013 24-189); assay: as above
T6 construct: also called hIFN-αK
T6 sequence (P05013 24-189): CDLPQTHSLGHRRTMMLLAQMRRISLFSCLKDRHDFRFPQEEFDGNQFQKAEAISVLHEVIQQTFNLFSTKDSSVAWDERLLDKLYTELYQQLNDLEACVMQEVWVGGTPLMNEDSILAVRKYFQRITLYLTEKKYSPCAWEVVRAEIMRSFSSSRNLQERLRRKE
Description: as §1, §2, §3

[7] = biological target: T7, recombinant human IFN-αH2 (human, UniProt P01570 24-189); assay: as above
T7 construct: also called hIFN-αH2
T7 sequence (P01570 24-189): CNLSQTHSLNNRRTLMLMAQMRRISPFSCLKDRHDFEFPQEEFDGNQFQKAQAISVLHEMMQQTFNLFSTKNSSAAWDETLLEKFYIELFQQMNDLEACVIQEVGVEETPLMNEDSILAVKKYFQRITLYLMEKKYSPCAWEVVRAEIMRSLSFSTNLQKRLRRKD
Description: as §1, §2, §3

[8] = biological target: T8, recombinant human IFN-α4a (human, UniProt P05014 24-189); assay: as above
T8 construct: 4a and 4b are allelic forms of IFNA4; also called hIFN-α4a
T8 sequence (P05014 24-189): as the sequence (P01571 24-189) above, with P26H, L38F, Q40E, N46H, T51A, N95D, M106V, I161R counted along it
Description: as §1, §2, §3

[9] = biological target: T9, recombinant human IFN-αWA (human, UniProt P05015 24-189); assay: as above
T9 construct: also called hIFN-αWA
T9 sequence (P05015 24-189): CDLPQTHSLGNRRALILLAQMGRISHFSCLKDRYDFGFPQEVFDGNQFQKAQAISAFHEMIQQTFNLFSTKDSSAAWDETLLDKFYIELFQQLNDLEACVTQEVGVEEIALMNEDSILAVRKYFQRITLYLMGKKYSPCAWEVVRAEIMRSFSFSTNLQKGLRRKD
Description: as §1, §2, §3

recombinant human IFN-αF [10] = biological target: T3, recombinant human IFN-αF; assay: cell-based or functional assay; remark: listed apart in the source
recombinant human IFN-αG [11] = biological target: T2, recombinant human IFN-αG; assay: cell-based or functional assay; remark: listed apart in the source
recombinant human IFN-αC [12] = biological target: T5, recombinant human IFN-αC; assay: cell-based or functional assay
recombinant human IFN-αF [13] = biological target: T3, recombinant human IFN-αF; assay: cell-based or functional assay; remark: listed apart in the source
recombinant human IFN-α1 = biological target: T10, recombinant human IFN-α1 (human, UniProt P0DY56 24-189); assay: SPR (Biacore), mAb immobilised, IFN-α injected
T10 construct: both come from gene 1; also called hIFN-α1; subtype 1 (Ala114)
T10 sequence (P0DY56 entry or part of it limits assumed): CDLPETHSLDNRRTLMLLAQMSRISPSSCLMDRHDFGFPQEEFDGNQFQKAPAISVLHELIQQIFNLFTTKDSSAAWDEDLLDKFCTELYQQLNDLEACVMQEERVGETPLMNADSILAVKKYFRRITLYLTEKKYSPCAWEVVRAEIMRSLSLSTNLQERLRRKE
Description: as §1, §2, §3

[14] = biological target: various IFN-α subtypes (those inhibited in the reporter gene assay of FIG. 5); assay: cell-based or functional assay
recombinant human IFN-αC [15] = biological target: T5, recombinant human IFN-αC; assay: cell-based or functional assay; remark: listed apart in the source
[16] = biological target: T8, recombinant human IFN-α4a; assay: cell-based or functional assay
[17] = biological target: recombinant human IFN-αA (human) (UniProt P01563); assay: SPR (Biacore), KD normalised to hzACO-1
Sequence of recombinant human IFN-αA (human) (P01563 other isoform, or with tags, fused parts or gaps): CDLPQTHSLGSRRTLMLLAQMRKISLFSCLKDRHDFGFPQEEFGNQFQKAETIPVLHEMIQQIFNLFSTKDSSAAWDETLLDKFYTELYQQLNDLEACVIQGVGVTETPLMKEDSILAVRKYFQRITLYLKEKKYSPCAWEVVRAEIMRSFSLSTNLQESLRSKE

[18] = biological target: recombinant human IFN-αA (human) (UniProt P01563); assay: cell-based or functional assay
[19] = biological target: recombinant human IFN-αA (human) (UniProt P01563); assay: SPR (Biacore), mAb amine-coupled on CM5 chip, IFN-α injected, 1:1 Langmuir fit

T1 sequence (P01567 24-189 limits assumed): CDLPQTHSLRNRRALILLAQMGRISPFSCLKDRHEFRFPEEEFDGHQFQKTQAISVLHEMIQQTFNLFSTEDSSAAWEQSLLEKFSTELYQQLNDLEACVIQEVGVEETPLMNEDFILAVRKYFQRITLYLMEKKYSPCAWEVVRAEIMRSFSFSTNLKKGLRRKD
T2 sequence (P01569 24-189): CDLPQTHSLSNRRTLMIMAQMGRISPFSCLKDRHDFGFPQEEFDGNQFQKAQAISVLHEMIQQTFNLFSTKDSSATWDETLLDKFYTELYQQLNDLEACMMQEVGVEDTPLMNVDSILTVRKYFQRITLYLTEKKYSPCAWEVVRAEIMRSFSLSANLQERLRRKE

B1: ACO-1 (murine anti-IFN-α antibody, recombinant) (antibody, V domains shown)
VH: QVQLQQPGAELVKPGASVKLSCKASGYTFTNYWMHWVKQRPGQGLEWIGEINPSHGRTIYNENFKSKATLTVDKSSITAFMQLSSLTSEDSAVYFCARGGLGPAWFAYWGQGTLVTVSA
VL: QIVLTQSPAIMSASPGEKVTLTCSAGSSVDSSYLYWYQQKPGSSPKLWIYSTSNLASGVPARFSGSGSGTSYSLTISSMEAEDAASYFCHQWSSYPFTFGSGTKLEIKR
With B1 as the binder, how does the “IC50 value relative to hzACO-1 (RG assay)” value [1] read?
The value was 0.58.

And the “IC50 value relative to hzACO-1 (RG assay)” value (recombinant human IFN-αG [2])?
The value was 0.56.

And the “IC50 value relative to hzACO-1 (RG assay)” value (recombinant human IFN-αF [3])?
The value was 0.82.

B2: hzACO-1 (humanized ACO-1) (antibody, human IgG4, V domains shown)
VH: QVQLVQSGAEVKKPGASVKVSCKASGYTFTNYWMHWVRQAPGQGLEWMGEINPSHGRTIYAQKFQGRVTMTRDTSTSTVYMELSSLRSEDTAVYYCARGGLGPAWFAYWGQGTLVTVSS
VL: EIVLTQSPATLSLSPGERATLSCSAGSSVDSSYLYWYQQKPGQAPRLLIYSTSNLASGIPARFSGSGSGTDFTLTISSLEPEDFAVYYCHQWSSYPFTFGQGTKLEIKR
notes: also called hzACO-1 IgG4; hzACO-1-IgG4
Which results are given for B2?
Kd [4]: 4.81 nM; Kd (recombinant human IFN-αG [5]): 0.92 nM; Kd (recombinant human IFN-αI): 2.81 nM; Kd (recombinant human IFN-αC [6]): 1.05 nM; Kd (recombinant human IFN-αK): 1.44 nM; Kd [7]: 3.21 nM; Kd [8]: 3.45 nM; Kd [9]: 4.1 nM; IC50 (reporter gene assay, Mx promoter-luciferase in 93D7 cells) (recombinant human IFN-αF [10]): 0.277 µg/mL; IC50 (read off the curve) (reporter gene assay) (recombinant human IFN-αG [11]): ~0.05 µg/mL; IC50 (read off the curve) (reporter gene assay) (recombinant human IFN-αC [12]): ~0.03 µg/mL; IC50 (read off the curve) (reporter gene assay) (recombinant human IFN-αF [13]): ~0.3 µg/mL; binding result (recombinant human IFN-α1): no binding; IC50, reporter gene (Mx promoter-luciferase) assay in 93D7 cells [14]: 0.028 to 0.314 µg/mL; IC50 (read off the curve) (CPE assay) (recombinant human IFN-αC [15]): ~0.008 µg/mL; IC50 (read off the curve) (CPE assay) [16]: ~0.06 µg/mL

B3: hzACO-1-kabat CDRH2 (antibody, V domains shown)
VH: B2 VH with A61N, Q62E, K63N, Q65K, G66S
VL: EIVLTQSPATLSLSPGERATLSCSAGSSVDSSYLYWYQQKPGQAPRLLIYSTSNLASGIPARFSGSGSGTDFTLTISSLEPEDFAVYYCHQWSSYPFTFGQGTKLEIK
With B3 as the binder, how does the KD mAb/KD hzACO-1 [17] read?
Its KD mAb/KD hzACO-1 is 0.9.

What about the “IC50 value relative to hzACO-1 (RG assay)” value [1] of the same binder?
The value was 1.15.

And the “IC50 value relative to hzACO-1 (RG assay)” value (recombinant human IFN-αG [2])?
The value was 0.78.

And the “IC50 value relative to hzACO-1 (RG assay)” value (recombinant human IFN-αF [3])?
The value was 0.95.

And the IC50 value relative to hzACO-1 (RG assay) [18]?
Its IC50 value relative to hzACO-1 (RG assay) is 0.95.

And the koff [19]?
The koff was 0.000341 s⁻¹.

What about the kon [19] of the same binder?
Its kon is 205000 M⁻¹ s⁻¹.

B4: hzACO-1-A93V (antibody, human IgG4, name in Kabat numbering, V domains shown)
VH: B2 VH with A97V
VL: B2 VL
B4 was tested. Which “IC50 (reporter gene assay, Mx promoter-luciferase in 93D7 cells)” value (recombinant human IFN-αF [10]) did it give?
Its value is 0.156 µg/mL.
